Several values for one entry are separate records, joined by “and”; a condition that tells them apart may be missing. Equal values may be shown once. No end group written: not given here.

In data set [1] the test system is HeLa cells. The data set can be described thus: Calcein AM/EthD-1 live/dead staining, HeLa cells. Particulars: 48 h, 1 and 1000 μg/mL. Type of data set: cell-based, human. Here is the method: (§1) (b) Cytotoxicity determined by Calcein AM/EthD-1 (live/dead, green/red) staining method after 48 h treated with 1 and 1000 μg/mL LK6 peptide solutions using non-treated cells as control.
(§2) In order to use LK6 for bioimaging applications, such as monitoring cells and in vivo imaging, we assessed the cytotoxicity of LK6 by the MTS test. The MTS test was applied to two human cell lines, HeLa and primary human dermal fibroblasts (HDF). The toxicity of LK6 was measured at 0.1, 1, 10, 100 and 1000 μg/mL. Cells were exposed to cell culture media containing LK6 solution for 48 h. […] Calcein AM can penetrate cell membrane and be converted to cell membrane impermeable green fluorescent calcein, while red fluorescent EthD-1 is excluded by the intact cell membrane of live cells.
(§3) In order to use LK6 for bioimaging applications, such as in vitro monitoring cells and in vivo imaging the whole animal, we assessed the cytotoxicity of LK6 by the MTS test and live/dead assay with two human cell lines, human epithelial carcinoma cells (HeLa) and primary human dermal fibroblasts (HDF).

A short description of data set [2]: SHG imaging and spectral analysis of peptide particles. The format is physicochemical. From the text: (§4) We acquired SHG images using a commercial laser scanning microscopic imaging system (Zeiss LSM 510 META, Jena, Germany) coupled to a mode-locked femtosecond Ti: sapphire laser (Mai-Tai broadband, Spectra-Physics), tunable from 710 nm to 990 nm. To achieve spectral analysis and detect the SHG signal, we used the META detector with 32-gated photon counting module.
To test whether the amyloid-like peptides of the present invention are SHG-active, we first investigated a hexamer peptide, Ac-LIVAGK-NH2, (LK6) (SEQ ID NO: 27). Peptide particles deposited on a glass microscope slide were examined under an SHG imaging system. Instrument details can be found in our previous work. During the whole experiments, only the backscattered geometry was employed because it is the only suitable configuration for in vivo imaging. We chose collagen I as a control. For more than a decade it has been shown that SHG microscopy can visualize supramolecular assembly of collagen in tissues. […] The fine structures of collagen and peptide particles can be clearly seen under SHG and scanning electron microscopy (SEM, FIG. 1a insert, 1b and 1c).
We further characterized LK6 peptide. […] When excited at 810 nm, LK6 emitted a sharp SHG peak at 405 nm (FIG. 2a). We then examined the excitation wavelength tunability of SHG signals from LK6 peptide. In FIG. 2b, as the excitation wavelength was increased from 810 to 890 nm, the wavelength of the SHG signals from the LK6 peptide particles increased from 405 to 445 nm respectively. Biological samples, such as cells and tissues, are known to have auto-fluorescence. With excitation wavelength tunability, we can better avoid auto-fluorescence. In addition, we can further increase penetration depth in tissues by simply increasing excitation wavelength. […] The band width (full width at half-maximum of Gaussian distribution, FWHM) was narrow (˜10 nm) and it obeys a relationship to the corresponding wavelength profile of the fundamental beam (˜15 nm). Moreover, we measured the dependence of the output signal on irradiation intensity by varying the 850 nm excitation intensity. […] (1)

A short description of data set [3]: Powder SHG efficiency (Kurtz and Perry powder technique, sucrose standard). The format is physicochemical. Particulars: relative to sucrose; average ± standard deviation.
Source text: as §4
All these peptides are SHG-active. We used a powder technique developed by Kurtz and Perry to evaluate the SHG efficiency of these second-order nonlinear optical materials. Sucrose, having a relatively modest nonlinearity, was chosen as a standard to evaluate second harmonic generation efficiencies. […] The efficiency of LD6 and IK3 were even three times higher than that of sucrose. These may due to their molecular structures. LD6 is known to form hydrogel at much lower concentrations compared to LK6. The trimer IK3 has larger dipole moment compared to LK6. […] This agrees with the previous findings. In Table 1, all the tested amyloid-like peptides were SHG-active with some showing even higher SHG efficiency than collagen subtypes. This provides a broad spectrum of materials as second harmonic probes.

Data set [4] concerns primary human dermal fibroblasts (HDF). The data set can be described thus: Calcein AM/EthD-1 live/dead staining, HDF cells. Type of data set: cell-based. The conditions noted are these: 48 h, 1 and 1000 μg/mL. Here is the method: as §1, §2, §3
Data set [5] shares this test system. The data set can be described thus: MTS cytotoxicity test, human dermal fibroblasts. The format is cell-based. The conditions noted are these: 48 h, 0.1 to 1000 μg/mL. Here is the method:
as §2
(§5) We cultured both HeLa and human dermal fibroblasts in DMEM supplemented with 10% fetal bovine serum and 1% penicillin/streptomycin (Life technologies, Singapore).
as §3
On the technique in general: Formazan colour is commonly taken as a measure of viable cells.

The conditions of data set [6]: at 12 mM, ref [18]; cited from earlier work.
The test system of data set [7] is HeLa cells. The data set can be described thus: MTS cytotoxicity test, HeLa cells. The format is cell-based, human. The conditions noted are these: 48 h, 0.1 to 1000 μg/mL. Here is the method: as §2, §5, §3
For data set [8] the following is noted: Hyper Rayleigh Scattering, ref [19]; cited from earlier work.

Turning to Ac-LIVAGK-NH2 [LK6, Ac-LIVAGK-NH2], the “Cytotoxicity by live/dead staining” value (with HeLa cells [1]; in data set [4]) was “no toxicity” throughout. Moreover, the “SHG peak emission wavelength” value in data set [2] (excitation 810 nm) came to 405 nm. The “SHG band width (FWHM of Gaussian distribution)” value in data set [2] (excitation 850 nm) is listed as roughly 10 nm. Moreover, the “SHG emission maximum (Gaussian fit)” value in data set [2] (excitation 850 nm) was 425 nm. Also, in data set [2] (excitation 890 nm), the SHG signal wavelength was 445 nm and 450 nm. Also, in data set [3], the “Powder SHG efficiency I^2ω/I^2ω(sucrose)” value came out at 0.95 ± 0.19. The “Cell viability (MTS)” value (in data set [5]; with HeLa cells [7]) was “either equivalent to or even higher than that of untreated cells” throughout. Also, in data set [6], the Hydrogel formation result was “self-assembled into hydrogels”.

With DFNKF (listed as Homo sapiens) [DF5], the “Powder SHG efficiency I^2ω/I^2ω(sucrose)” value in data set [3] was found to be 0.89 ± 0.33. In addition, the Hydrogel formation entry in data set [6] is “self-assembled into hydrogels”.

As to GGG, the “First hyperpolarizability β” value in data set [8] was “about 0.087 ×10-30 esu”.

GGVVIA (listed as Homo sapiens) [GA6]: the “Powder SHG efficiency I^2ω/I^2ω(sucrose)” value in data set [3] worked out at 1.52 ± 0.43. Besides, in data set [6], the Hydrogel formation result is given as “self-assembled into hydrogels”.

With “ILVAGS (Ac-ILVAGS) [IS6, designed synthetic hexamer, neutral, acetylated at the N terminus]”, the “Powder SHG efficiency I^2ω/I^2ω(sucrose)” value in data set [3] worked out at 1.96 ± 0.58. In addition, in data set [6], the Hydrogel formation entry is “self-assembled into hydrogels”.

IVK [IK3]: the “Powder SHG efficiency I^2ω/I^2ω(sucrose)” value in data set [3] is 3.31 ± 0.57. Further, the Hydrogel formation result in data set [6] was “self-assembled into hydrogels”.

Turning to KLVFFAE (listed as Homo sapiens) [KE7], the “Powder SHG efficiency I^2ω/I^2ω(sucrose)” value in data set [3] came to 3.18 ± 0.67. Moreover, the Hydrogel formation result in data set [6] is recorded as “self-assembled into hydrogels”.

Consider “LIVAGD (Ac-LIVAGD) [LD6, designed synthetic hexamer, negatively charged, acetylated at the N terminus]”, for which the “Powder SHG efficiency I^2ω/I^2ω(sucrose)” value in data set [3] stood at 3.06 ± 0.65. Also, in data set [6], the Hydrogel formation entry is on record as “self-assembled into hydrogels”.

Regarding NFGAIL (listed as Homo sapiens) [NL6], the “Powder SHG efficiency I^2ω/I^2ω(sucrose)” value in data set [3] is 0.76 ± 0.21. Besides, the Hydrogel formation entry in data set [6] was “self-assembled into hydrogels”.

Consider PPG, for which the “First hyperpolarizability β” value in data set [8] is “about 0.087 ×10-30 esu”.

As to “Type I: human collagen subtype I, control and endogenous SHG probe”, the “First hyperpolarizability β” value in data set [8] is listed as 1250±20 ×10-30 esu. The “Powder SHG efficiency I^2ω/I^2ω(sucrose)” value in data set [3] turned out to be 1.23 ± 0.36.

For Type II: human collagen subtype II, the “Powder SHG efficiency I^2ω/I^2ω(sucrose)” value in data set [3] is listed as 0.41 ± 0.13.

(Values after US10105454B2, “Ultrashort peptides as exogenous second harmonic probes for bioimaging applications” (Agency for Science, Technology and Research, priority 2014, dated 2018).)
